Data from patent US20070083037A1 (published 2007).
Residue numbers refer to the chain shown, from its start. Blank lines part the entries; values can stand above or below the binder they belong to. Where no end group is shown, it is not given here.

Experiments:
[1] = biological target: T1, rhesus monkey NPY Y4 receptor protein of SEQ ID NO: 2 (encoded by the nucleotide sequence of SEQ ID NO: 1) (rhesus monkey, UniProt P0DQD5 1-375 (human entry)); experiment: cell-based or functional assay
T1 chain: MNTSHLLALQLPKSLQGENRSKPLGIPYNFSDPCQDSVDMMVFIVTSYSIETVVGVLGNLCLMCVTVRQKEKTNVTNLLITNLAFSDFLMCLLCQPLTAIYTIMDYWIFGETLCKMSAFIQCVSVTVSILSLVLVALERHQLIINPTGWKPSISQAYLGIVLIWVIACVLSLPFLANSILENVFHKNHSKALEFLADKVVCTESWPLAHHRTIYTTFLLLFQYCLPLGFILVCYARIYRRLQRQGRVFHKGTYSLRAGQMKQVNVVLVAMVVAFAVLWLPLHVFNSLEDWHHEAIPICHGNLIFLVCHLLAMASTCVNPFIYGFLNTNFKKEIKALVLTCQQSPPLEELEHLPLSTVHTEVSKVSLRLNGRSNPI

[2] = biological target: T2, rhesus monkey NPY Y4 receptor protein of SEQ ID NO: 4 (encoded by the nucleotide sequence of SEQ ID NO: 3) (rhesus monkey, UniProt P0DQD5 1-375 (human entry)); experiment: cell-based or functional assay
T2 chain: T1 chain with V361A

[3] = biological target: T1, rhesus monkey NPY Y4 receptor protein …; experiment: competition against 59 pM [125I]human PP, COS-7 membrane fractions, filter binding
Protocol: (§1) The membrane fraction obtained in this manner was incubated for 2 hours at 25° C. together with 31 pM [¹²⁵I]human PP in 25 mM Tris buffer (pH 7.4) containing 10 mM MgCl₂, 1 mM phenylmethylsulfonyl fluoride, 0.1% bacitracin and 0.5% bovine serum albumin, and then filtered through a polyethyleneimine-treated UniFilter-96 GF/C (Perkin-Elmer). After rinsing with 5 mM Tris buffer (pH 7.4) containing 0.3% bovine serum albumin and drying, MicroScint0 (Perkin-Elmer) was added, and a TopCount HTS (Packard) was used to measure the residual radioactivity on the filter. The non-specific binding was measured in the presence of 1 μM human PP.
(§2) Also, with the membrane fraction concentration set to 0.155 and 0.14 mg protein/ml and the [¹²⁵I]human PP concentration set to 59 pM, human PP, human NPY and swine PYY were added to the reaction solution at different concentrations, and a Prism Version 4.00 (GraphPad) was used to determine the 50% inhibitory concentration (IC₅₀ value) from the inhibition curve for each peptide against specific [¹²⁵I]human PP binding (FIGS. 3 and 4).

[4] = biological target: T2, rhesus monkey NPY Y4 receptor protein …; experiment: as above
Protocol: as §1, §2

- EC50 of the increase in fluorescent intensity (intracellular calcium ion concentration, Fluo-4, FLIPR) in CHO-K1 cells with G alpha 15 [1]: 1.8 nM
- EC50 of the increase in fluorescent intensity (intracellular calcium ion concentration, Fluo-4, FLIPR) in CHO-K1 cells with G alpha 15 [2]: 4.8 nM
- IC50 [3]: 0.24 nM
- IC50 [4]: 0.17 nM
B1: human Pancreatic Polypeptide (peptide, UniProt P01298 30-65, looked up)
peptide: APLEPVYPGDNATPEQMAQYAADLRRYINMLTRPRY
modifications: ends and bridges not checked
notes: mature; also called human PP; PP

- IC50 [3]: 100 nM
- IC50 [4]: 97 nM
B2: human Neuropeptide-Y (peptide)
peptide: not shown
notes: mature; also called human NPY; NPY

- IC50 [3]: 10 nM
- IC50 [4]: 9.9 nM
B3: swine Peptide YY (peptide)
peptide: not shown
notes: mature; also called swine PYY; PYY
